Positions count from the first letter of the chain named.
T1: human GIP receptor (human) (UniProt P48546)
T1 sequence (looked up): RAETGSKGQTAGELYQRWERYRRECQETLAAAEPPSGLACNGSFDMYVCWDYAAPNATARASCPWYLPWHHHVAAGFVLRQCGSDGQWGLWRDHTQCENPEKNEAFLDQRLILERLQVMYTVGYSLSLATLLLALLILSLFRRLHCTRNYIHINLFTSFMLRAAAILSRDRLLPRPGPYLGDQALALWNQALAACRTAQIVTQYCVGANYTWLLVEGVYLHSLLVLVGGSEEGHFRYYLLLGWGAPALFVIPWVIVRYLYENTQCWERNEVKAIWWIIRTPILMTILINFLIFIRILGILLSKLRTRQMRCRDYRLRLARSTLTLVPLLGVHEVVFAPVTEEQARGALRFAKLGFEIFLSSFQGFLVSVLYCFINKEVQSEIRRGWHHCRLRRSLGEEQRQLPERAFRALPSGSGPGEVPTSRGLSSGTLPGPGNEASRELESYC

B1: Example 1134 (peptide)
chain: YXQGTFTSDXXQXLDXKAQXQFIQXLIEXGPSSGAPPPSGGGE
modifications: not fully specified; N-methyl-Tyr, non-natural residues, acylated Lys (γGlu-C18 diacid), C-terminal amide; synthetic construct; SITE 1: note = N-methyl-tyrosine; SITE 2: note = 2-Aminoisobutyric Acid; SITE 10: note = 3-(4-Pyridyl)-L-alanine; SITE 11: note = alpha-methyl-L-serine; SITE 13: note = alpha-methyl-leucine; SITE 16: note = L-ornithine; SITE 17: note = Lysine is chemically modified …
B2: Example 1136 (peptide)
chain: B1 chain with Q12I
modifications: not fully specified; non-natural residues (Aib, 4Pal, αMeS, Orn, Me4Pal); lipidated Lys; C-amide; synthetic construct; SITE 2: note = 2-Aminoisobutyric Acid; SITE 10: note = 3-(4-Pyridyl)-L-alanine; SITE 11: note = alpha-methyl-L-serine; SITE 13: note = alpha-methyl-leucine; SITE 16: note = L-ornithine; SITE 17: note = Lysine is chemically modified through conjugation of the epsilon-amino group
B3: Example 1138 (peptide)
chain: B1 chain with I27L
modifications: not fully specified; non-natural residues, acylated Lys, C-terminal amide; synthetic construct; SITE 2: note = 2-Aminoisobutyric Acid; SITE 10: note = 3-(4-Pyridyl)-L-alanine; SITE 11: note = alpha-methyl-L-serine; SITE 13: note = alpha-methyl-leucine; SITE 16: note = L-ornithine; SITE 17: note = Lysine is chemically modified through conjugation of the epsilon-amino group
B4: Example 1139 (peptide)
chain: B1 chain with I27L
modifications: not fully specified; non-natural residues (Aib, 4Pal, αMeS, Iva, αMeY); lipidated K; amide; synthetic construct; SITE 2: note = 2-Aminoisobutyric Acid; SITE 10: note = 3-(4-Pyridyl)-L-alanine; SITE 11: note = alpha-methyl-L-serine; SITE 13: note = alpha-methyl-leucine; SITE 16: note = L-ornithine; SITE 17: note = Lysine is chemically modified through conjugation of the epsilon-amino group
B5: Example 1135 (peptide)
chain: B1 chain with Q12I
modifications: not fully specified; N-methyl Tyr, non-natural residues, acylation, C-terminal amide; synthetic construct; SITE 1: note = N-methyl-tyrosine; SITE 2: note = 2-Aminoisobutyric Acid; SITE 10: note = 3-(4-Pyridyl)-L-alanine; SITE 11: note = alpha-methyl-L-serine; SITE 13: note = alpha-methyl-leucine; SITE 16: note = L-ornithine; SITE 17: note = Lysine is chemically modified through conju
B6: Example 1142 (peptide)
chain: YXQGTXTSDXXIXLDXKAQXEFIEXLIEGGPSSGAPPPTGE
modifications: Aib, αMeF(2F), 4Pal, αMeS, αMeL, Orn, Me4Pal, αMeY, acyl, amide; synthetic construct; SITE 2: note = 2-Aminoisobutyric Acid; SITE 6: note = alpha-methyl-2-fluoro-L-phenylalanine; SITE 10: note = 3-(4-Pyridyl)-L-alanine; SITE 11: note = alpha-methyl-L-serine; SITE 13: note = alpha-methyl-leucine; SITE 16: note = L-ornithine; SITE 17: note = Lysine is chemically mo
B7: Example 1144 (peptide)
chain: B6 chain with T39G
modifications: non-natural residues; K acylated AEEA-γGlu-C18 diacid; C-amide; synthetic construct; SITE 2: note = 2-Aminoisobutyric Acid; SITE 6: note = alpha-methyl-2-fluoro-L-phenylalanine; SITE 10: note = 3-(4-Pyridyl)-L-alanine; SITE 11: note = alpha-methyl-L-serine; SITE 13: note = alpha-methyl-leucine; SITE 16: note = L-ornithine; SITE 17: note = Lysine is chemically mo
B8: Example 1146 (peptide)
chain: B6 chain with T39E, G40S
modifications: non-natural residues, acylated Lys, C-terminal amide; synthetic construct; SITE 2: note = 2-Aminoisobutyric Acid; SITE 6: note = alpha-methyl-2-fluoro-L-phenylalanine; SITE 10: note = 3-(4-Pyridyl)-L-alanine; SITE 11: note = alpha-methyl-L-serine; SITE 13: note = alpha-methyl-leucine; SITE 16: note = L-ornithine; SITE 17: note = Lysine is chemically mo
B9: Example 1148 (peptide)
chain: B6 chain with T39E
modifications: non-natural residues, AEEA-γGlu-diacid acylated Lys, C-terminal amide; synthetic construct; SITE 2: note = 2-Aminoisobutyric Acid; SITE 6: note = alpha-methyl-2-fluoro-L-phenylalanine; SITE 10: note = 3-(4-Pyridyl)-L-alanine; SITE 11: note = alpha-methyl-L-serine; SITE 13: note = alpha-methyl-leucine; SITE 16: note = L-ornithine; SITE 17: note = Lysine is chemically mo
B10: Example 247 (peptide)
chain: YXQGTFTSDFSXXLDKKAQXAFIEYLLEXGHSSGAPPPSGE
modifications: non-natural residues; lipidated Lys AEEA-γGlu-C18 diacid; C-term amide; synthetic construct; SITE 2: note = 2-Aminoisobutyric Acid; SITE 12: note = L-ornithine; SITE 13: note = alpha-methyl-leucine; SITE 17: note = Lysine is chemically modified through conjugation of the epsilon-amino group of the Lysine side chain with (2-[2-(2-Amino-ethoxy)-ethoxy]-acetyl)-(gamma-Glu)
B11: Example 266 (peptide)
chain: B10 chain with Y25W
modifications: Aib, Orn, αMeL; K acylated with (AEEA)2-γGlu-C18 diacid; C-amide; synthetic construct; SITE 2: note = 2-Aminoisobutyric Acid; SITE 12: note = L-ornithine; SITE 13: note = alpha-methyl-leucine; SITE 17: note = Lysine is chemically modified through conjugation of the epsilon-amino group of the Lysine side chain with (2-[2-(2-Amino-ethoxy)-ethoxy]-acetyl)2-(gamma-Glu)

Biological target: hGLP-1R (Homo sapiens, UniProt P43220)
Test: cell-based or functional assay

Chain of hGLP-1R (P43220 24-463): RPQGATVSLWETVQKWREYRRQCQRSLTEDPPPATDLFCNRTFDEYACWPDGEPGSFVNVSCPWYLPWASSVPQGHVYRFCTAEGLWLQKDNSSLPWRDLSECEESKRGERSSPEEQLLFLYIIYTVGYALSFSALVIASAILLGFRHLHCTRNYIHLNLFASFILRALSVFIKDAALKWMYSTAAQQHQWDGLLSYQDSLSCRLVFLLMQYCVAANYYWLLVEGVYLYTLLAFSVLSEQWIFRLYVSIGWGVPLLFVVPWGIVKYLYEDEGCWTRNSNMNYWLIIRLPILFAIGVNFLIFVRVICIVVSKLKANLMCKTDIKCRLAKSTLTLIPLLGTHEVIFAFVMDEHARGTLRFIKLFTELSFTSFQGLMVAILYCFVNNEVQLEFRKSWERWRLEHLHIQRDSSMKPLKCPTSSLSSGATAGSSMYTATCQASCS

Row | Binder | Relative cAMP EC50 | cAMP Rel EC50 (in the presence of 1% HSA)
1 | B1 | 0.957 nM | –
2 | B2 | 0.453 nM | –
3 | B3 | 1.93 nM | –
4 | B4 | 1.85 nM | –
5 | B5 | 0.746 nM | –
6 | B6 | 0.329 nM | –
7 | B7 | 0.282 nM | –
8 | B8 | 0.281 nM | –
9 | B9 | 0.299 nM | –
10 | B10 | – | 291 nM
11 | B11 | – | 583 nM

Biological target: T1, human GIP receptor (human)
Test: cell-based or functional assay

Row | Binder | Relative cAMP EC50 | cAMP Rel EC50 (in the presence of 1% HSA)
12 | B1 | 0.0391 nM | –
13 | B2 | 0.0131 nM | –
14 | B3 | 0.0491 nM | –
15 | B4 | 0.0431 nM | –
16 | B5 | 0.0126 nM | –
17 | B6 | 0.00706 nM | –
18 | B7 | 0.00649 nM | –
19 | B8 | 0.00628 nM | –
20 | B9 | 0.00801 nM | –
21 | B10 | – | 12.9 nM
22 | B11 | – | 17.3 nM

Biological target: human glucagon receptor (human) (UniProt P47871)
Test: cell-based or functional assay

Chain of human glucagon receptor (human) (P47871 26-477): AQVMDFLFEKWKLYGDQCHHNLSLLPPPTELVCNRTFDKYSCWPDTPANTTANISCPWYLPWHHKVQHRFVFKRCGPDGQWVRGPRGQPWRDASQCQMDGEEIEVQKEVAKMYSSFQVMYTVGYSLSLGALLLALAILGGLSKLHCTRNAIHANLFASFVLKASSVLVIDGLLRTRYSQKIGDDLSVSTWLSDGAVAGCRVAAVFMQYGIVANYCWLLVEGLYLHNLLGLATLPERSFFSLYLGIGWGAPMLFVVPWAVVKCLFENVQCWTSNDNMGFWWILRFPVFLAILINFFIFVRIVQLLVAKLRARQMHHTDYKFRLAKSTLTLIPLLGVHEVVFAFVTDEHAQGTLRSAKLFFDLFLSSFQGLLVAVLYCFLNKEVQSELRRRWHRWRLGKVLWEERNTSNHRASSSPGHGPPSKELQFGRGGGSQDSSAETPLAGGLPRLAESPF

Row | Binder | Relative cAMP EC50 | cAMP Rel EC50 (in the presence of 1% HSA)
23 | B1 | 2.57 nM | –
24 | B2 | 1.26 nM | –
25 | B3 | 1.01 nM | –
26 | B4 | 5.29 nM | –
27 | B5 | 1.76 nM | –
28 | B6 | 1.34 nM | –
29 | B7 | 1.32 nM | –
30 | B8 | 1.22 nM | –
31 | B9 | 1.6 nM | –
32 | B10 | – | 443 nM
33 | B11 | – | 923 nM
